Data published in the nanobody polyreactivity screen of Harvey et al. (2022).

Assay: yeast display, Sf9 membrane polyspecificity reagent, FACS + sequencing; frameworks hold sequencing errors
Outline: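 After 36–48 hours of galactose induction, yeast (Saccharomyces cerevisiae BJ5465) displaying a synthetic nanobody library were stained at 4 °C for 1 hour with 10% biotinylated, detergent-solubilized Sf9 membrane reagent. Streptavidin microbeads enriched the stained cells before FACS sorting into low and high (top ~1%) gates on anti-HA and streptavidin fluorescence. Each clone's polyreactivity label reflects its gate of origin.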

Row | Sequence | polyreactivity (PSR sort gate)
1 | QVQLVESGGGLVQAGGSLRLSCAASGNTFRWYVMGWYRQAPGKERELVAAITSSGSTTYYADSVKGRFTISRDNAKNTVYLQLNSLKPEDTAVYYCAARNYGPYDYWGQGTQVTVSS | low polyreactivity
2 | QVQLVESGGGLVQAGGSLRLSCAASGNTFRWYVMGWYRQAPGKERELVAAITSSGSTTYYADSVKGRFTISRDNAKNTVYLQMNSLKPEDTAVYYCAADGRTITYSPVDYDSWGQGTQVTVSS | low polyreactivity
3 | QVQLVESGGGLVQAGGSLRLSCAASGNTFRYYAMGWYRQAPGKERELVAAINRSGGRTYYADSVKGRFTISRDNAKNTVYLQMNSLKPEDTAVYYCARSIRYGRGVYKGGYWGQGTQVTVSS | high polyreactivity
4 | QVQLVESGGGLVQAGGSLRLSCAASGNTFRYYAMGWYRQAPGKERELVAAISESGGRTYYADSVKGRFTISRDNAKNTVYLQMNSLNPEDTAVYYCAASRWARTWWYGYNYWGQGTQVTVSS | high polyreactivity
5 | QVQLVESGGGLVQAGGSLRLSCAASGNTFSGNAMGWYRQAPGKQRELVATINSGGGSTNYADSVTGRFSISRDNAKNTVYLQMNSLKPEDTAGYYCAASAYTWRGIDSSYLTVTYDYWGQGTQVTVSS | low polyreactivity
6 | QVQLVESGGGLVQAGGSLRLSCAASGNTFSNYAMGWYRQAPGKERELVAAISRSGGRTYYADSVKGRFTISRDNAKNSVYLKMNSLKPEDTAVYDCIATSNGESYYWGQGTQVTVSS | high polyreactivity
7 | QVQLVESGGGLVQAGGSLRLSCAASGNTFSPYVMGWYRQAPGKERELVAAISKGGGSTYYADSVKGRFTISRDNAKNTVYLQMNSLKPEDTAVYYCAASAGPRASYYYWGQGTQVTVSS | high polyreactivity
8 | QVQLVESGGGLVQAGGSLRLSCAASGNTFTSYAMGWYRQAPGKERELVAAISASGSSTYYADSVKGRFTISRDNAKNTVYLQMNSLKPEDTAVYYCNAVKYRVESSYDYWGQGTQVTVSS | low polyreactivity
9 | QVQLVESGGGLVQAGGSLRLSCAASGNTFTTYAMGWYRQAPGKERELVAAISRRGGSTYYADSVKGRFTISRDNAKNTVYLQMNSLKPDDTAVYYCARRYFYTYGYWGQGTQVTVSS | high polyreactivity
10 | QVQLVESGGGLVQAGGSLRLSCAASGNTFTVNAMGWYRQAPGKERELVAAINYSGGSTYYADSVKGRFTISRDNAKNTVYLQMNSLKPEDTAVYYCAASPDELLYEMYYWGQGTQVTVSS | low polyreactivity
11 | QVQLVESGGGLVQAGGSLRLSCAASGNTFVAYAMGWYRQAPGKERELVAGITRGGTTYYADSVKGRFTISRDNAKNTVYLQMNSLKPEDTAVYYCAARLGYRYNYWGQGTQVTVSS | high polyreactivity
12 | QVQLVESGGGLVQAGGSLRLSCAASGNTFVDYAMVWYRQAPGKERELVAAIDQTGGSTYYADSVKGRFTISRDNAKNTVYLQMNSLKPEDTAVYYCARDLAYRKDLYPRWYDYWGQGTQVTVSS | low polyreactivity
13 | QVQLVESGGGLVQAGGSLRLSCAASGNTFVPYVMGWYRQAHGKERELVAAISRRGGSTRYADSVKGRFTISRDNAKNTVYLQMNSLKPEDTAVYYCAADGYVFALQRSRGVDFGYEYWGQGTQGTVSS | high polyreactivity
14 | QVQLVESGGGLVQAGGSLRLSCAASGNTFWYYAMGWYRQAPGKEREFVAAISRRGTTTYYADSVKWRFTISRDNAKNTVYLQMNSLKPEDTAVYYCAARRYVSVFRVSATGLDLGYWGQGTQVTVSS | high polyreactivity
15 | QVQLVESGGGLVQAGGSLRLSCAASGNTFWYYAMGWYRQAPGKERELVAAISWDGGITYYADSVKGRFTISRDNAKNTVFLQMNRLKPEDTAVYYCATLIPRKGSRYYHRGYWGQGTQLTVSS | high polyreactivity
16 | QVQLVESGGGLVQAGGSLRLSCAASGNTFYDNAMGWYRQTPGKERELVAAISYNDGDTYYADSVKGRFTISRDNAKNTVYLQMNSLKPEDTAVYFCAAVVRRVRGARGQEGDNYWGQGTQVTVSS | high polyreactivity
17 | QVQLVESGGGLVQAGGSLRLSCAASGNTFYGYAMGWYRPAPGKERELVASITLSGDSTYYADSVKGRFTISRDNAKNTVYLQMNSLKPEDTAVYYCAGVYTYPLGYYHYTYDYWGQGTQVTVSS | low polyreactivity
18 | QVQLVESGGGLVQAGGSLRLSCAASGNTFYGYAMGWYRQAPGKERELVASITLSGDSTYYADSVKGRFTISRDNAMNTVYLQMNSLKPEYTAVYYCAGVYTYPLGYYHYTYDYWGQGTQVTVSS | low polyreactivity
19 | QVQLVESGGGLVQAGGSLRLSCAASGNTFYKYAMGWYRQAPGKERELVADISWSGGSTYYADSVKGRFTISRDNAKNTVYLQMNSLKPEDTAVYYCNADTPVWDGHAYPVDYWGQGTQVTVSS | low polyreactivity
20 | QVQLVESGGGLVQAGGSLRLSCAASGNTFYRNAMGWSRQAPGKERELVAAIDYSAGSTYYADSVKGRFTISRDNAKNTVYLQMNSLKPEDTAVYYCAADARTSRGRRYYYWGQGTQVTVSS | low polyreactivity
21 | QVQLVESGGGLVQAGGSLRLSCAASGNTFYRYAMGWYRQAPGKERELVAAISWSGSSTYYADSVKGRFTISRDNAKNTVYLQMNSLKPEDTAVYYCAAGTYDGGYHYDYWGQGTQVTVSS | high polyreactivity
22 | QVQLVESGGGLVQAGGSLRLSCAASGNTFYVNVMGWYRQAPGKEREFVAAISTRGVSTSYADSVKGRVTISRDNAKNTVYLQMNSLKPEDTAVYYCAASFRRPQPKGSTYGYWGQGTQVTVSS | high polyreactivity

Row | Sequence | polyreactivity (PSR sort gate)
23 | QVQLVESGGGLVQAGGSLRLSCAASGNTFYVNVMGWYRQAPGKERELVARITTSGGSTSYADSVKGRFTISRDNAKNTVYLQMNSLKPEDTAVYYCAADFPEYYLPYDYWGQGTQVTVSS | low polyreactivity
24 | QVQLVESGGGLVQAGGSLRLSCAASGNTFYWNAMGWYRQAPGKERELVAAISTTGVSTYYADSVKGRFTISRDNAKNTVYLQMNSLKPEDTAVYYCAAEIIGYHTIYDYWGQGTQVTVSS | low polyreactivity
25 | QVQLVESGGGLVQAGGSLRLSCAASGNTFYYAKAWYRQAPGKERELVASIRTGGSTNYADSVKGRFTISRDNAKNTVYLQMNSLKPEDTAVYYCNRDGTYTHTGWDYWRPYEYWGQGTQVTVSS | low polyreactivity
26 | QVQLVESGGGLVQAGGSLRLSCAASGNTFYYNAMGWYRQAPGKEREFVATITESGTSTYYADSVKGRFTISRDNAKNTVYLQMNSLKPEDTAVYYCAAQYWYVGGIAWYDYWGQGTQVTVSS | low polyreactivity
27 | QVQLVESGGGLVQAGGSLRLSCAASGNTFYYYAMGWYRQAPGKERELVASITSTARTYYADSVKGRFTISRDNAKNTVYLQMNSLKPEDTAVYYCNAKEHYATRSDSWGEGTQVTVSS | high polyreactivity
28 | QVQLVESGGGLVQAGGSLRLSCAASGNTIFPSTMGWYRQAPGKEREFVAAMTWSGVSTYYADSVKGRFTISRDNAKNTVYLQMNSLKPEDTAVYYCAARGPVYVSYPRQYGYWGQGTQVTVSS | high polyreactivity
29 | QVQLVESGGGLVQAGGSLRLSCAASGNTIIRYAMGWYRQAPGKERELVAAISYSGGRTYYADSVKGRFTISRDNAKNTVYLQMNSLKPEDTAVYYCAARYYPSGYRKKMYYWGQGTQVTVSS | high polyreactivity
30 | QVQLVESGGGLVQAGGSLRLSCAASGNTITFNTMAWYRQAPGKEREVVAVISRSGGSTYYADSVKGRFTISRDNAKNTVYLQMNSLKPEDTAVYYCAATGFSYRYFQTRDYWGQGTQVTVSS | high polyreactivity
31 | QVQLVESGGGLVQAGGSLRLSCAASGNTITWNTMGWYRQAPGKERELVAVITSDGSTYYADSVKGRFTISRDNAKNSVYLQMNRLKPEDTSVYYCNALCAEWYPEEDYWGQGTQVTVSS | low polyreactivity
32 | QVQLVESGGGLVQAGGSLRLSCAASGNTLDAYAMGWYRQAPGKERELVASITYRGGSTYYADSVKGRFTISRDNAKNTVYLQMNSLKPEDTAVYYCAAAYQKSPITPKMDYWGQGTQVTVSS | low polyreactivity
33 | QVQLVESGGGLVQAGGSLRLSCAASGNTLDAYTLGWDRQAPGKERELVAAISRGGTRTYYADSLKGRFTISRDNAKNTVYLQMKSLKPEDTAVYSCAAKVGYTHEYGRYDYWGQGTQVTVSS | high polyreactivity
34 | QVQLVESGGGLVQAGGSLRLSCAASGNTLIQYAMGWYRQAPGKERELVAGISGSDDSTYYADSVKGRFTISRDNAKNTVYLQMNSLKPEDTAVYYCAAQVDRWKGREHDYWGQGTQVTVSS | low polyreactivity
35 | QVQLVESGGGLVQAGGSLRLSCAASGNTLRPNGMGWYRQAPGKERELVAAISSGGSPYYADSVKGRFTISRDNAKNTVYLQMNSLKPEDTAVYYCAAEYWYDYWGQGTQVTVSS | low polyreactivity
36 | QVQLVESGGGLVQAGGSLRLSCAASGNTYPVYAMGWYRHASGQERELDATITSGGSTNYADSVKGRFTLSRDNAKTSVYYQMNSLSPEDTAVYYCARRAVYSKRRYDYWGQGTQVTVSS | low polyreactivity
37 | QVQLVESGGGLVQAGGSLRLSCAASGPIFFINAMGSYRQAPGKEREFLATISWSGGSTYYADSVKGRFTISRDNAKNTVYLQMNSLKPEDTAVYYCNAETYGSRWRRQYGYWGQGTQVTVSS | high polyreactivity
38 | QVQLVESGGGLVQAGGSLRLSCAASGPIFRGYAMGWYRQAPGKERELVARITSGGRTYYADSVKGRFTISRDNAKNTVYLQMNSLKPEDTAVYYCATVGRGYDERHNYWGQGTQVTVSS | high polyreactivity
39 | QVQLVESGGGLVQAGGSLRLSCAASGPTFRYYAMGWYRQAPGKERELVATITGSGGSTYYADSVKGRFTISRDNAKNTVYLQMNSLKPEDTAVYYCNARKVRYPYRWYDYWGQGTQVTVSS | high polyreactivity
40 | QVQLVESGGGLVQAGGSLRLSCAASGPTFSKANAMGWYRQAPVKERELVAAITDGGSTYADSVKGRFTISRDNAKNTVYLQINSLKPEDTAVYYCAKDTEVFYDASYDYWGQGTQVTVSS | low polyreactivity
41 | QVQLVESGGGLVQAGGSLRLSCAASGPTFYEYAMGWYRQAPGKERELVARITRGGSTYYADSVKGRFTISRDNAKNTVYLQMNSLKPEDTAVYYCAAPYKDLYPYYEYDYWGHGTQVTVSS | low polyreactivity
42 | QVQLVESGGGLVQAGGSLRLSCAASGPTFYRYAMGRYRQAPGKERELVAAISASGGSTYYADSVKGRFTISRDNAKNTVYLQMNSLKPEDTAVYYCAARGWYSLYEFYYWGQGTQVTVSS | high polyreactivity
43 | QVQLVESGGGLVQAGGSLRLSCAASGPTNAMGWYRQAPGKERELVAAITKSGGSTYYADSVKGRFTISRDNAKNTVYLQMNSLKPEDTAVYYCALILRHTAYYYWGQGTQVTVSS | high polyreactivity
